Assays:
human PBMC = assay: Cytokine Study: PBMC - G-CSF production (G-CSF ELISA); assay type: cell-based; conditions: mRNA with Lipofectamine 2000
Experimental: (§1) The plates were then incubated at 37° C.
(§2) Each condition was done in duplicate.
In the G-CSF ELISA, background signal from the Lipofectamine 2000 (LF2000) untreated condition was subtracted at each time point.

[1] = test system: peripheral blood mononuclear cells (PBMC); assay: In Vitro PBMC Studies: Percent modification - G-CSF expression; assay type: cell-based, human; conditions: for G-CSF Expression: 480 ng mRNA
Experimental: 480 ng of G-CSF mRNA modified with 5-methylcytosine (5mC) and pseudouridine (pseudoU) or unmodified G-CSF mRNA was transfected with 0.4 uL of Lipofectamine 2000 into peripheral blood mononuclear cells (PBMC) from three normal blood donors (D1, D2, and D3). […] The supernatant was harvested and run by ELISA 22 hours after transfection to determine the protein expression. The expression of IFN-alpha and TNF-alpha may be a secondary effect from the transfection of the G-CSF mRNA.

[2] = test system: human PBMC, tumor necrosis factor alpha (TNF-alpha)
Experimental: 50 mL of human blood from two donors was received from Research Blood Components (lots KP30928 and KP30931) in sodium heparin tubes. For each donor, the blood was pooled and diluted to 70 mL with DPBS (SAFC Bioscience 59331C, lot 071M8408) and split evenly between two 50 mL conical tubes. 10 mL of Ficoll Paque (GE Healthcare 17-5442-03, lot 10074400) was gently dispensed below the blood layer. The tubes were centrifuged at 2000 rpm for 30 minutes with low acceleration and braking. The tubes were removed and the buffy coat PBMC layers were gently transferred to a fresh 50 mL conical and washed with DPBS. The tubes were centrifuged at 1450 rpm for 10 minutes.
The supernatant was aspirated and the PBMC pellets were resuspended and washed in 50 mL of DPBS. The tubes were centrifuged at 1250 rpm for 10 minutes. This wash step was repeated, and the PBMC pellets were resuspended in 19 mL of Optimem I (Gibco 11058, lot 1072088) and counted. The cell suspensions were adjusted to a concentration of 3.0×10̂6 cells/mL live cells.
These cells were then plated on five 96 well tissue culture treated round bottom plates (Costar 3799) per donor at 50 uL per well. Within 30 minutes, transfection mixtures were added to each well at a volume of 50 uL per well. After 4 hours post transfection, the media was supplemented with 10 uL of Fetal Bovine Serum (Gibco 10082, lot 1012368)
The plate containing the material to be transfected was incubated for 20 minutes. The transfection mixtures were then transferred to each of the human PBMC plates at 50 uL per well. The plates were then incubated at 37° C. At 2, 4, 8, 20, and 44 hours each plate was removed from the incubator, and the supernatants were frozen.
The ability of unmodified and modified mRNA to produce the encoded protein was assessed (G-CSF production) over time as was the ability of the mRNA to trigger innate immune recognition as measured by interferon-alpha production.

[3] = test system: human PBMC, interferon-alpha (IFN-alpha); assay: Cytokine Study: PBMC - IFN-alpha production (ELISA)
Experimental: as §1, §2

mice = assay: Intravenous Administration - neutrophil count; assay type: in vivo, mouse; conditions: for Neutrophil: I.V. 50 ug RNA at days 0, 2 and 4, 10% lipoplex
Experimental: Neutrophils were measured at days 1, 5 and 8. Controls included non-specific mammalian RNA or the formulation buffer alone (F.Buffer). The mice were bled at days 1, 5 and 8 to determine the effect of mRNA-encoded human G-CSF to increase neutrophil count. The dosing regimen is shown in Table 21 as are the resulting neutrophil counts (thousands/uL; K/uL).
In Table 21, an asterisk (*) indicates statistical significance at p<0.001 compared to buffer.

[4] = test system: Human primary foreskin fibroblasts (BJ fibroblasts); assay: Cell Viability in BJ Fibroblasts (CELL TITER GLO, repeated transfection); assay type: cell-based; conditions: normalized to untreated = 100%
Experimental: Control samples of Lipofectamine 2000 (LF2000) and unmodified G-CSF mRNA were also transfected. The modified mRNA or control samples were transfected daily for 4 days. The viability of the cells after transfection was evaluated 6 hours and 24 hours after the first transfection (Ti, 6 hours or T1, 24 hours), and 24 hours after the second (T2, 24 hours) and fourth transfection (T4, 24 hours).
To determine cell viability, the culture medium was completely removed and the cells were washed once with 600 ul of sterile PBS without Ca2+/Mg2+ (Gibco/Life Technologies, Manassas, Va.) in order to rinse-off loosely attached cells. PBS was removed and discarded. The cleaned fibroblasts in each well were treated with 220 ul of a diluted CELL TITER GLO® (Promega, catalog #G7570) stock solution (the CELL TITER GLO® stock solution was further diluted 1:1 with an equal amount of sterile PBS). A sterile pipet tip was used to scratch the cells off the plate and accelerate the lysis process.
For two time intervals, T1, 24 hours and T2, 24 hours, an alternative protocol was applied. Cells were washed with PBS, as described above, and subsequently trypsinized with Trypsin/EDTA solution (Gibco/Life Technologies, Manassas, Va.). Cells were detached and collected in 500 ul of medium containing trypsin inhibitor. Cells were harvested by centrifugation at 1200 rcf for 5 minutes. The cell pellet was resuspended in 500 ul PBS. This cell suspension was kept on ice, and 100 ul of this was combined with 100 ul of undiluted Cell Titer Glo solution.
All of the CELL TITER GLO® lysates were then incubated at room temperature for 20 minutes. 20 ul of the lysates were transferred to a white opaque polystyrene 96-well plate (Corning, Manassas, Va.) and combined with 100 ul diluted CELL TITER GLO® solution. The plate reader used was from BioTek Synergy H1 (BioTek, Winooski, Vt.) and the absolute values were normalized to signal of the untreated BJ Fibroblasts to 100% cell vitality.

[5] = Stability of Modified RNA - storage, gel electrophoresis; assay type: physicochemical
Experimental: Stability experiments were conducted to obtain a better understanding of storage conditions to retain the integrity of modified RNA. […] After the mRNA had been stored for 0 hours, 2 hours, 6 hours, 24 hours, 48 hours, 5 days and 14 days, the mRNA was analyzed by gel electrophoresis using a Bio-Rad EXPERION™ system. The modified, unmodified and lipoplexed G-CSF mRNA was also stored in RNASTABLE® (Biomatrica, Inc. San Diego, Calif.) at 40° C. or water at −80° C. or 40° C. for 35 days before being analyzed by gel electrophoresis.

[6] = test system: peripheral blood mononuclear cells (PBMC); assay: Modified RNA transfected in PBMC (0.1-100% modification) - G-CSF expression; assay type: cell-based, human
Experimental: 500 ng of G-CSF mRNA modified with 5-methylcytosine (5mC) and pseudouridine (pseudoU) or unmodified G-CSF mRNA was transfected with 0.4 uL of Lipofectamine 2000 into peripheral blood mononuclear cells (PBMC) from three normal blood donors (D1, D2, and D3). […] The supernatant was harvested 6 hours and 18 hours after transfection and run by ELISA to determine the protein expression. The expression of G-CSF, IFN-alpha, and TNF-alpha for Donor 1 is shown in Table 10, Donor 2 is shown in Table 11 and Donor 3 is shown in Table 12.

[7] = test system: peripheral blood mononuclear cells (PBMC), TNF-alpha; assay: In Vitro PBMC Studies: Percent modification - TNF-alpha expression; assay type: cell-based, human
Experimental: (§3) The supernatant was harvested and run by ELISA 22 hours after transfection to determine the protein expression.

[8] = test system: peripheral blood mononuclear cells (PBMC), IFN-alpha; assay: In Vitro PBMC Studies: Percent modification - IFN-alpha expression; assay type: cell-based, human
Experimental: as §3

[9] = PBMC donor D1, 0.4 uL Lipofectamine 2000, ELISA 22 hours after transfection
[10] = PBMC donor D2, 22 hours after transfection
[11] = PBMC donor D3, 22 hours after transfection

Molecule: Luciferase: control mRNA encoding luciferase (SEQ ID NO: 3), Cap 1, fully modified with 5-methylcytosine and pseudouridine [reference compound]
- G-CSF: 3 Donor Average (human PBMC): 18 pg/mL
- G-CSF Expression [1, 9]: 90.2 pg/mL
- G-CSF Expression [1, 10]: 0.0 pg/mL
- G-CSF Expression [1, 11]: 22.1 pg/mL

B1: G-CSF 5-methyl cytosine/pseudouridine: mRNA encoding human G-CSF (SEQ ID NO: 1), Cap 1, 100% substitution with 5-methyl cytidine and pseudouridine (nucleic acid, listed as Homo Sapiens)
chain: GGGAAAUAAGAGAGAAAAGAAGAGUAAGAAGAAAUAUAAGAGCCACCAUGGCCGGUCCCGCGACCCAAAGCCCCAUGAAACUUAUGGCCCUGCAGUUGCUGCUUUGGCACUCGGCCCUCUGGACAGUCCAAGAAGCGACUCCUCUCGGACCUGCCUCAUCGUUGCCGCAGUCAUUCCUUUUGAAGUGUCUGGAGCAGGUGCGAAAGAUUCAGGGCGAUGGAGCCGCACUCCAAGAGAAGCUCUGCGCGACAUACAAACUUUGCCAUCCCGAGGAGCUCGUACUGCUCGGGCACAGCUUGGGGAUUCCCUGGGCUCCUCUCUCGUCCUGUCCGUCGCAGGCUUUGCAGUUGGCAGGGUGCCUUUCCCAGCUCCACUCCGGUUUGUUCUUGUAUCAGGGACUGCUGCAAGCCCUUGAGGGAAUCUCGCCAGAAUUGGGCCCGACGCUGGACACGUUGCAGCUCGACGUGGCGGAUUUCGCAACAACCAUCUGGCAGCAGAUGGAGGAACUGGGGAUGGCACCCGCGCUGCAGCCCACGCAGGGGGCAAUGCCGGCCUUUGCGUCCGCGUUUCAGCGCAGGGCGGGUGGAGUCCUCGUAGCGAGCCACCUUCAAUCAUUUUUGGAAGUCUCGUACCGGGUGCUGAGACAUCUUGCGCAGCCGUGAAGCGCUGCCUUCUGCGGGGCUUGCCUUCUGGCCAUGCCCUUCUUCUCUCCCUUGCACCUGUACCUCUUGGUCUUUGAAUAAAGCCUGAGUAGGAAG
modifications: Cap1; 5-methylcytidine and pseudouridine
- TNF-alpha production (in words) [2]: low but detectable levels
- TNF-alpha: 3 Donor Average [2]: 31 pg/mL
- G-CSF/TNF-alpha (ratio), PC Ratio ([2]; human PBMC, 3 donor averages): 153
- G-CSF: 3 Donor Average (human PBMC): 4742 pg/mL
- IFN-alpha production (in words) [3]: low but detectable levels
- IFN-alpha: 3 Donor Average [3]: 141 pg/mL
- G-CSF/IFN-alpha (ratio), PC Ratio ([3]; human PBMC, 3 donor averages): 34

B2: G-CSF modified mRNA: control modified G-CSF mRNA (SEQ ID NO: 1, Cap 1), fully modified 5-methylcytosine and pseudouridine, 8.4 nM (nucleic acid, listed as Homo Sapiens)
chain: B1 chain
modifications: Cap1; 5-methylcytosine and pseudouridine
- increase in neutrophil count above control at day 5 (mice; intravenous administration): four to five fold increase

B3: G-CSF (no modification): human G-CSF mRNA having no modifications, formulated in 10% lipoplex (RNAIMAX) (nucleic acid, listed as Homo Sapiens)
chain: B1 chain
modifications: Cap1; polyA tail; lipoplex
- Neutrophil (mice; Day 1): 1.88 K/uL
- Neutrophil (mice; Day 5): 1.95 K/uL
- Neutrophil (mice; Day 8): 2.09 K/uL

B4: unmodified G-CSF: Unmodified G-CSF mRNA (SEQ ID NO: 1, Cap1), storage stability (nucleic acid, listed as Homo Sapiens)
chain: B1 chain
modifications: Cap1
- Percent Viability T1, 6 hours ([4]; T1, 6 hours): 101%
- Percent Viability T1, 24 hours ([4]; T1, 24 hours): 72%
- Percent Viability T2, 24 hours ([4]; T2, 24 hours): 74%
- Percent Viability T4, 24 hours ([4]; T4, 24 hours): 42%
- stable out to ([5]; stored at 25° C.): 48 h
- stable out to ([5]; stored at 37° C.): 6 h
- stable out to ([5]; stored at 50° C.): 2 h

B5: 100% modification: G-CSF mRNA (SEQ ID NO: 1, Cap1) completely modified with 5mC and pseudoU (nucleic acid, listed as Homo Sapiens)
chain: B1 chain
modifications: Cap1; 5-methylcytidine and pseudouridine
- G-CSF ([6]; PBMC Donor 1, 500 ng mRNA, 6 hours after transfection): 1815 pg/mL
- G-CSF ([6]; PBMC Donor 1, 18 hours after transfection): 2224 pg/mL
- G-CSF ([6]; PBMC Donor 2, 6 hours after transfection): 2184 pg/mL
- G-CSF ([6]; PBMC Donor 2, 18 hours after transfection): 2432 pg/mL
- G-CSF ([6]; PBMC Donor 3, 6 hours after transfection): 6086 pg/mL
- G-CSF ([6]; PBMC Donor 3, 18 hours after transfection): 7549 pg/mL
- Average TNF-a [7]: 47 pg/mL
- ratio of protein/cytokine production relative to natural G-CSF mRNA, TNF-alpha ([7]; PBMC, Table 9): 27 fold
- G-CSF/TNF-alpha (PC ratio) ([7]; calculated from Tables 7 and 8): 52
- Average IFN-a [8]: 153 pg/mL
- ratio of protein/cytokine production relative to natural G-CSF mRNA, IFN-alpha ([8]; PBMC, Table 9): 100 fold
- G-CSF/IFN-alpha (PC ratio) ([8]; calculated from Tables 7 and 8): 16
- G-CSF Expression [1, 9]: 1968.9 pg/mL
- G-CSF Expression [1, 10]: 2595.6 pg/mL
- G-CSF Expression [1, 11]: 2835.7 pg/mL
- Average G-CSF ([1]; average of PBMC donors D1-D3): 2466 pg/mL

— patent US20130123481A1, “MODIFIED NUCLEOSIDES, NUCLEOTIDES, AND NUCLEIC ACIDS, AND USES THEREOF” (MODERNA THERAPEUTICS, priority 2011, published 2013)
